Reference: US20230125550A1 (ARCELLX, published 2023)
Residue numbers refer to the chain shown, from its start.

B1: SEQ ID NO 800 (designed binder)
chain: MGSWYEFVIRLDAIEDRLFALGGSEAELAAFEKEIAAFESELQAYKGKGNPEVEHLRVHAAHIRVWLQAYRHN
B2: SEQ ID NO 810 (designed binder)
chain: B1 chain with Y5S, V8T, I9D, D12F, F19L, H55D, V58M, H62S, V65L
B3: SEQ ID NO 801 (designed binder)
chain: B1 chain with Y5V, I9E, D16F, H55K, V58N, V65S
B4: SEQ ID NO 804 (designed binder)
chain: B1 chain with V8Y, I9L, D12S, H55S, H59Q, V65T
B5: SEQ ID NO 803 (designed binder)
chain: B1 chain with Y5S, V8Y, I9Y, D12A, D16S, H55R, V58E, V65R
B6: SEQ ID NO 805 (designed binder)
chain: B1 chain with V8Y, I9D, H55S, V58D, H59Q, H62Y, V65T
B7: SEQ ID NO 807 (designed binder)
chain: MGSWVEFYHRLEAIEQRLMALGGSEAELAAFEKEIAAFESELQAYKGKGNPEVESLREQAAAIRSWLQAYRHN
B8: SEQ ID NO 802 (designed binder)
chain: B1 chain with Y5S, I9H, D16V, H55E, V58Y, H62K, V65S
B9: SEQ ID NO 808 (designed binder)
chain: B7 chain with H9E, E12N, Q16Y, M19E, Q59H, A62Y, S65Q
B10: SEQ ID NO 806 (designed binder)
chain: B7 chain with V5H, Y8W, H9V, Q16S, M19F, E58V, A62H
B11: SEQ ID NO 819 (designed binder)
chain: MGSWHHFKYFLADIKSILEALGGSEAELAIFEVQIAYFEDLLQSYKGKGNPEVEALRKEAAAIRDELQAYRHN
B12: SEQ ID NO 790 (designed binder)
chain: MGSWAEFSDRLNAIDQRLWALGGSEAELAAFEKEIAAFESELQAYKGKGNPEVEILREHAAEIRKFLQAYRHN
B13: SEQ ID NO 791 (designed binder)
chain: B12 chain with A5M, S8N, D9H, N12Q, Q16G, I55M, E62A, K65A
B14: SEQ ID NO 820 (designed binder)
chain: MGSWLYFKYNLAVIKHWLEALGGSEAELAIFEMSIADFEYELQWYKGKGNPEVEALRKEAAAIRDELQAYRHN
B15: SEQ ID NO 825 (designed binder)
chain: MGSWVLFKDYLADIKHYLEALGGSEAELANFEHLIANFEGDLQTYKGKGNPEVEALRKEAAAIRDELQAYRHN
B16: SEQ ID NO 827 (designed binder)
chain: MGSWEHFKVELAGIKAYLEALGGSEAELALFEWAIADFESILQDYKGKGNPEVEALRKEAAAIRDELQAYRHN
B17: SEQ ID NO 828 (designed binder)
chain: B16 chain with E5I, H6Y, V9D, A16K, L30M, W33V, S40A, D44K
B18: SEQ ID NO 823 (designed binder)
chain: MGSWAYFKGQLAYIKSGLEALGGSEAELAYFELRIAYFEHWLQNYKGKGNPEVEALRKEAAAIRDELQAYRHN
B19: SEQ ID NO 816 (designed binder)
chain: MGSWGEFTVRLYAIDRRLDALGGSEAELAAFEKEIAAFESELQAYKGKGNPEVEELRRFAAIIRAFLQAYRHN
B20: SEQ ID NO 811 (designed binder)
chain: MGSWHEFYDRLYAIWDRLDALGGSEAELAAFEKEIAAFESELQAYKGKGNPEVEGLRNAAAVIRIFLQAYRHN
B21: SEQ ID NO 822 (designed binder)
chain: MGSWADFKWTLAYIKHRLEALGGSEAELAFFEMEIAYFEQSLQNYKGKGNPEVEALRKEAAAIRDELQAYRHN
B22: SEQ ID NO 818 (designed binder)
chain: MGSWSIFKYHLADIKLLLEALGGSEAELAYFEFLIADFEFTLQDYKGKGNPEVEALRKEAAAIRDELQAYRHN
B23: SEQ ID NO 817 (designed binder)
chain: MGSWYEFDHRLMAISFRLVALGGSEAELAAFEKEIAAFESELQAYKGKGNPEVETLRRRAANIRHLLQAYRHN
B24: SEQ ID NO 812 (designed binder)
chain: MGSWFEFSNRLYAIWHRLTALGGSEAELAAFEKEIAAFESELQAYKGKGNPEVESLRTQAAFIRILLQAYRHN
B25: SEQ ID NO 814 (designed binder)
chain: B24 chain with S8E, N9D, Y12F, H16T, T19E, T58Q, Q59S, F62S, I65W
B26: SEQ ID NO 815 (designed binder)
chain: MGSWHEFSERLFAIWTRLEALGGSEAELAAFEKEIAAFESELQAYKGKGNPEVEALRQSAAFIRVMLQAYRHN
B27: SEQ ID NO 813 (designed binder)
chain: B24 chain with N9D, H16E, T19D, T58F, I65Y, L66Q
B28: SEQ ID NO 821 (designed binder)
chain: MGSWFYFKYELAWIKHWLEALGGSEAELASFETHIAFFEHQLQYYKGKGNPEVEALRKEAAAIRDELQAYRHN
B29: SEQ ID NO 829 (designed binder)
chain: MGSWVLFKQELAWIKWLLEALGGSEAELAAFEEQIARFEHDLQKYKGKGNPEVEALRKEAAAIRDELQAYRHN
B30: SEQ ID NO 833 (designed binder)
chain: B29 chain with V5L, Q9S, E10D, L17R, A30E, Q34S, R37M, D41W, K44E
B31: SEQ ID NO 831 (designed binder)
chain: B29 chain with V5F, Q9S, L17R, A30Y, E33Y, R37E, H40F, D41W, K44S
B32: SEQ ID NO 832 (designed binder)
chain: B29 chain with V5L, Q9S, L17Y, A30E, E33W, Q34N, R37E, H40K, D41N
B33: SEQ ID NO 834 (designed binder)
chain: MGSWLYFKSDLAWIKWRLEALGGSEAELADFEEAIAEFEQALQIYKGKGNPEVEALRKEAAAIRDELQAYRHN
B34: SEQ ID NO 830 (designed binder)
chain: B29 chain with L17Y, E33W, Q34E, R37A, H40Q, D41R, K44I
B35: SEQ ID NO 809 (designed binder)
chain: B7 chain with E12D, E15F, Q16D, M19D, S55E, E58A, Q59N, A62G
B36: SEQ ID NO 824 (designed binder)
chain: MGSWENFKDTLAWIKEYLEALGGSEAELAGFEHRIAIFEHYLQYYKGKGNPEVEALRKEAAAIRDELQAYRHN
B37: SEQ ID NO 826 (designed binder)
chain: MGSWSLFKHRLANIKVYLEALGGSEAELADFETFIAYFEKDLQEYKGKGNPEVEALRKEAAAIRDELQAYRHN

Target: T1, AFP p26 (human, UniProt P02771 381-609)
T1 construct: The construct used is not described
T1 sequence: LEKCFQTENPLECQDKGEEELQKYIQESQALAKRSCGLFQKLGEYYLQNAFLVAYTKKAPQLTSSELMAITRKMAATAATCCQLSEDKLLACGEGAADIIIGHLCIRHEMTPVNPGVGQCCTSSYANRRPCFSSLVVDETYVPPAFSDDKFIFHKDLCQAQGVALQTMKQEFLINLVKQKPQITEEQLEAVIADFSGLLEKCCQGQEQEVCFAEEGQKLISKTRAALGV
Experiment: phage ELISA, A450 target/A450 IgG1-Fc
How it was run: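 Individual phagemid colonies picked from panning output were rescued in 96-well format using VCSM13 helper phage. Plates received 1.3 microg/ml goat anti-human IgG1-Fc antibody, followed by 5 nM recombinant human target or IgG1-Fc, and then 50 microl of phage diluted 5× in ELISA blocking buffer. An HRP-conjugated anti-M13 antibody detected binding at 450 nm. For each clone, the ELISA ratio is the absorbance with target divided by that with IgG1-Fc, averaged over every screened well containing the clone.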

Q: For B1, which ELISA_avg is on record?
A: 30.1 ratio

Q: B2 was tested. Which ELISA_avg did it give?
A: 25.4 ratio

Q: For B3, which ELISA_avg is on record?
A: 23.8 ratio

Q: How did the ELISA_avg turn out when B4 was run?
A: 27.4 ratio

Q: For B5, which ELISA_avg is on record?
A: 30.8 ratio

Q: With B6 as the binder, how does the ELISA_avg read?
A: 31.9 ratio

Q: B7 was tested. Which ELISA_avg did it give?
A: 28.5 ratio

Q: How did the ELISA_avg turn out when B8 was run?
A: 16.9 ratio

Q: With B9 as the binder, how does the ELISA_avg read?
A: 28.7 ratio

Q: For B10, which ELISA_avg is on record?
A: 26.9 ratio

Q: With B11 as the binder, how does the ELISA_avg read?
A: 8 ratio

Q: Which ELISA_avg does the source give for B12 here?
A: 25.3 ratio

Q: Which ELISA_avg does the source give for B13 here?
A: 33.4 ratio

Q: With B14 as the binder, how does the ELISA_avg read?
A: 13.3 ratio

Q: Which ELISA_avg does the source give for B15 here?
A: 13.8 ratio

Q: B16 was tested. Which ELISA_avg did it give?
A: 18.1 ratio

Q: B17 was tested. Which ELISA_avg did it give?
A: 15.9 ratio

Q: Which ELISA_avg does the source give for B18 here?
A: 11.4 ratio

Q: Which ELISA_avg does the source give for B19 here?
A: 8.54 ratio

Q: Which ELISA_avg does the source give for B20 here?
A: 22.9 ratio

Q: Which ELISA_avg does the source give for B21 here?
A: 31.5 ratio

Q: Which ELISA_avg does the source give for B22 here?
A: 20.2 ratio

Q: B23 was tested. Which ELISA_avg did it give?
A: 20.1 ratio

Q: Which ELISA_avg does the source give for B24 here?
A: 15.2 ratio

Q: For B25, which ELISA_avg is on record?
A: 10.9 ratio

Q: Which ELISA_avg does the source give for B26 here?
A: 8.21 ratio

Q: Which ELISA_avg does the source give for B27 here?
A: 19 ratio

Q: With B28 as the binder, how does the ELISA_avg read?
A: 13.7 ratio

Q: B29 was tested. Which ELISA_avg did it give?
A: 29.5 ratio

Q: B30 was tested. Which ELISA_avg did it give?
A: 33.3 ratio

Q: Which ELISA_avg does the source give for B31 here?
A: 25.8 ratio

Q: Which ELISA_avg does the source give for B32 here?
A: 25.7 ratio

Q: Which ELISA_avg does the source give for B33 here?
A: 21.2 ratio

Q: B34 was tested. Which ELISA_avg did it give?
A: 22.5 ratio

Q: With B35 as the binder, how does the ELISA_avg read?
A: 20 ratio

Q: B36 was tested. Which ELISA_avg did it give?
A: 19.2 ratio

Q: B37 was tested. Which ELISA_avg did it give?
A: 19.6 ratio
